Target: actin filaments (rabbit skeletal muscle actin) (rabbit) (UniProt P68135)
Assay: co-sedimentation

Kd	Substance	stoichiometry N
	Rng2CHD fused with GFP to its N-terminus via a 16-residue linker (GFP-Rng2CHD) (domain or fragment)	1
920 nM	calponin-homology actin binding domain of fission yeast IQGAP Rng2 (Rng2CHD) (domain or fragment)	

Source: paper doi:10.1101/2020.04.14.041046
